A short description of this data set: self-splicing fitness, log relative to wild type (ln ratio); higher = more splicing; Tetrahymena group I intron in knt gene, E. coli kanamycin selection, DiMSum; sequences stand for … in CUCUCU…GGAGGGAAAAGUUAUCAGGCAUGCACCUGGUAGCUAGUCUUUAAACCAAUAGAUUGCAUCGGUUUAAAAGGCAAGACCGUCAAAUUGCGGGAAAGGGGUCAACAGCCGUUCAGUACCAAGUCUCAGGGGAAACUUUGAGAUGGCCUUGCAAAGGGUAUGGUAAUAAGCUGACGGACAUGGUCCUAACCACGCAGCCAAGUCCUAAGUCAACAGAUCUUCUGUUGAUAUGGAUGCAGUUCACAGACUAAAUGUCGGUCGGGGAAGAUGUAUUCUUCUCAUAAGAUAUAGUCGGACCUCUCCUUAAUGGGAGCUAGCGGAUGAAGUGAUGCAACACUGGAGCCGCUGGGAACUAAUUUGUAUGCGAAAGUAUAUUGAUUAGUUUUGGAGUACUCGUGGUCG
The method in brief: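 A randomised library covering all eight P1ex-region intron nucleotides was built with the intron in the knt kanamycin-resistance gene on pET-22b(+) and held in E. coli BL21(DE3). Cells were grown overnight at 37°C or 30°C on LB agar, with or without 25 μg/mL kanamycin, plus 100 μg/mL carbenicillin, 50 μM IPTG and 0.2% rhamnose, and pooled colonies were amplicon-sequenced on an Illumina HiSeq 2500. DiMSum fitness is the error-weighted combination of wild-type-normalised replicate fold changes, kanamycin versus none.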

± gives the uncertainty stated by the source.

From the supplement of paper PMC7877785 come the findings set out here.

For the sequence UAGCAGCAAUAUUACGAUGG, the “self-splicing fitness (ln)” value runs as follows: (30 °C) -1.6 ± 0.063; (37 °C) -0.933 ± 0.073.
The like results for ACGUAGCAAUAUUACGCGAG were, in that order, -3.43 ± 0.19 and -0.232 ± 0.11.
On to GGUCAGCAAUAUUACGGUUC, for which the “self-splicing fitness (ln)” value reads like this: (30 °C) 0.308 ± 0.096; (37 °C) -0.214 ± 0.1.
The like results for CACCAGCAAUAUUACGGAAC were, in that order, -4.01 ± 0.17 and -2.06 ± 0.14.
The like results for GUUCAGCAAUAUUACGGUAC were, in that order, -2.69 ± 0.19 and 0.0172 ± 0.14.
The like results for UCCGAGCAAUAUUACGCAUG were, in that order, -2.8 ± 0.32 and -2.36 ± 0.3.
Take UACGAGCAAUAUUACGCAGU: the “self-splicing fitness (ln)” value reads like this: (30 °C) -3.15 ± 0.26; (37 °C) -2.95 ± 0.33.
The like results for GAAGAGCAAUAUUACGUGAC were, in that order, -3.21 ± 0.22 and -1.72 ± 0.18.
The like results for UGGAAGCAAUAUUACGAGAG were, in that order, -3.79 ± 0.47 and -3.3 ± 0.33.
The like results for GAGAAGCAAUAUUACGCUGC were, in that order, -2.78 ± 0.46 and -2.26 ± 0.49.
For the sequence UAUGAGCAAUAUUACGGAGG, the “self-splicing fitness (ln)” value (30 °C) was -3.2 ± 0.17 and the “self-splicing fitness (ln)” value (37 °C) is -2.53 ± 0.29.
The like results for GCACAGCAAUAUUACGCUUC were, in that order, -2.21 ± 0.094 and -1.3 ± 0.098.
The like results for GCCGAGCAAUAUUACGAAUC were, in that order, -1.68 ± 0.11 and -0.92 ± 0.12.
The like results for GGUCAGCAAUAUUACGAUGC were, in that order, -0.354 ± 0.091 and 0.43 ± 0.11.
As to GUUGAGCAAUAUUACGGUCA, the “self-splicing fitness (ln)” value (30 °C) is -1.81 ± 0.26 and the “self-splicing fitness (ln)” value (37 °C) was -2.45 ± 0.29.
As to GUCUAGCAAUAUUACGAACG, the “self-splicing fitness (ln)” value was -1.83 ± 0.2 (30 °C) and -1.13 ± 0.23 (37 °C).
Turning to AACGAGCAAUAUUACGUAGU, the “self-splicing fitness (ln)” value (30 °C) is -3.97 ± 0.15 and the “self-splicing fitness (ln)” value (37 °C) is -2.24 ± 0.15.
The like results for CCGCAGCAAUAUUACGCGUU were, in that order, -3.51 ± 0.14 and -2.29 ± 0.14.
On to UGCCAGCAAUAUUACGAAAG, for which the “self-splicing fitness (ln)” value (30 °C) is -2.78 ± 0.13 and the “self-splicing fitness (ln)” value (37 °C) is -1.4 ± 0.15.
Consider GCAGAGCAAUAUUACGUCUC, for which the “self-splicing fitness (ln)” value (37 °C) was -2.17 ± 0.31.
ACACAGCAAUAUUACGUCUC: the “self-splicing fitness (ln)” value was -3.26 ± 0.099 (30 °C) and -1.25 ± 0.08 (37 °C).
The like results for UAUUAGCAAUAUUACGAGUG were, in that order, -0.139 ± 0.069 and 0.196 ± 0.087.
Regarding CAGUAGCAAUAUUACGUUAG, the “self-splicing fitness (ln)” value is -1.32 ± 0.072 (30 °C) and 0.119 ± 0.096 (37 °C).
The like results for UCAAAGCAAUAUUACGCAUU were, in that order, -3.2 ± 0.4 and -3.34 ± 0.37.
In the case of CCCAAGCAAUAUUACGUAGA, the “self-splicing fitness (ln)” value (30 °C) is -3.94 ± 0.17 and the “self-splicing fitness (ln)” value (37 °C) was -3.16 ± 0.18.
Take UGUCAGCAAUAUUACGGUCU: the “self-splicing fitness (ln)” value (30 °C) was -0.529 ± 0.063 and the “self-splicing fitness (ln)” value (37 °C) is 0.201 ± 0.083.
The like results for UAAUAGCAAUAUUACGGGUA were, in that order, -1.9 ± 0.17 and -0.433 ± 0.14.
The like results for UUUGAGCAAUAUUACGGGAG were, in that order, -3.55 ± 0.28 and -1.99 ± 0.19.
GGCGAGCAAUAUUACGCAAG: the “self-splicing fitness (ln)” value runs as follows: (30 °C) -2.96 ± 0.34; (37 °C) -2.3 ± 0.24.
The like results for UGGCAGCAAUAUUACGCAUC were, in that order, -1.93 ± 0.18 and -1.65 ± 0.16.
The like results for ACCUAGCAAUAUUACGAGCA were, in that order, -1.17 ± 0.1 and -1.59 ± 0.14.
The like results for CGGAAGCAAUAUUACGGGGG were, in that order, -3.72 ± 0.13 and -3.16 ± 0.13.
As for GCGUAGCAAUAUUACGGGGU, the “self-splicing fitness (ln)” value reads like this: (30 °C) -3.95 ± 0.19; (37 °C) -1.86 ± 0.12.
GGAAAGCAAUAUUACGAAAU: the “self-splicing fitness (ln)” value reads like this: (30 °C) -1.52 ± 0.3; (37 °C) -1 ± 0.41.
For CACUAGCAAUAUUACGAGUA, the “self-splicing fitness (ln)” value reads like this: (30 °C) -1.34 ± 0.096; (37 °C) -0.6 ± 0.076.
The like results for AUCUAGCAAUAUUACGUAGA were, in that order, -2.39 ± 0.12 and -0.832 ± 0.11.
The like results for UAGCAGCAAUAUUACGGCUU were, in that order, -1.1 ± 0.11 and 0.255 ± 0.15.
As to UCUGAGCAAUAUUACGGUCC, the “self-splicing fitness (ln)” value (30 °C) is -2.51 ± 0.25.
